These results are taken from patent US8008547B2, “Glyphosate-N-acetyltransferase (GAT) genes” (E.I. duPont de Nemours, priority 2000, dated 2011).

For orientation: Km means the concentration of substrate that gives half-maximal velocity.

The subject of one data set is tobacco plants. In words: Herbicide spray tests of GAT expressing tobacco plants. It is filed as in vivo, Nicotiana tabacum. The protocol: Tobacco shoots generated as described in EXAMPLE 9 were excised from the explants and transferred to basal root induction (BRI) medium composed of half-strength Murashige and Skoog (MS) medium, pH 5.7, with 1.5% sucrose, 0.3% Gelrite, 0-200 uM glyphosate and 400 ug/ml Timentin. Rooted plants and axillary shoots were clonally propagated by cutting the stem and transferring it to fresh BRI medium until the desired number of clones was obtained. Rooted plants were carefully removed from the solid medium. Prior to placing the plants into small pots of soil, the roots were washed to remove any remaining Gelrite. A protective plastic cover was kept over the plants for at least one week until the plants were well established.
To determine if GAT expressing tobacco plants could tolerate simulated field rate sprays of glyphosate, clonal lines of several events per GAT variant were tested. A typical test was set up as follows: One clone from each event was sprayed with 1 ml of solution containing the isopropylamine salt of glyphosate (Sigma P5671) and 0.125% Triton X-100, pH 6.8 such that the amount of active ingredient sprayed was equivalent to that present in commercial glyphosate products. For example, to achieve 32 oz/acre (1×) of herbicide containing 40% active ingredient (“ai”), 2.4 ul of 40% ai formulation was diluted into 1 ml water and sprayed on a plant in a 4-inch square pot (16 in^2). A mock application (0×) with surfactant only was also included. In some cases a second spray was applied 1-4 weeks later. Plants were kept in controlled growth rooms at 25° C. and 70% humidity with 16 hr light.
Seed-grown wild type plants were also sprayed. […] All 0× plants were healthy, including the non-GAT control plants. Three weeks later all of the surviving plants were sprayed with an 8× dose.

Data set [1] has as its system Nicotiana tabacum L. Xanthi leaf explants. As to the kind of experiment: Tobacco shoot regeneration with glyphosate selection. It is filed as cell-based. The settings on record: explants lacking a GAT gene. From the text: Agrobacterium-mediated transformation of plant cells occurs at low efficiencies. To allow propagation of transformed cells while inhibiting proliferation of non-transformed cells, a selectable marker is needed. Antibiotic markers for kanamycin and hygromycin and the herbicide modifying gene bar, which detoxifies the herbicidal compound phosphinothricin, are examples of selectable markers used in plants (Methods in Molecular Biology, 1995, 49:9-18). […] An evolved GAT gene (0—5B8), SEQ ID NO: 190, was cloned between a plant promoter (enhanced strawberry vein banded virus) and a […] terminator and introduced into the T-DNA region of the binary vector pMAXY3793 suitable for transformation of plant cells via Agrobacterium tumefaciens EHA105 as shown in FIG. 12. A screenable GUS marker was present in the T-DNA to allow confirmation of transformation. Transgenic tobacco shoots were generated using glyphosate as the only selecting agent.
Axillary buds of Nicotiana tabacum L. Xanthi were subcultured on half-strength MS medium with sucrose (1.5%) and Gelrite (0.3%) under 16-h light (35-42 μEinsteins m^−2 s^−1, cool white fluorescent lamps) at 24° C. every 2-3 weeks. Young leaves were excised from plants after 2-3 weeks subculture and were cut into 3×3 mm segments. A. tumefaciens EHA105 was inoculated into LB medium and grown overnight to a density of A600=1.0. […]

Data set [2] is described as follows: GAT activity (acetylation of glyphosate), general statements. Type of data set: biochemical. Particulars: native YitI of Bacillus subtilis. From the text:
As used herein, the term “glyphosate-N-acetyltransferase activity” or “GAT activity” refers to the ability to catalyze the acetylation of the secondary amine group of glyphosate, as illustrated, for example, in FIG. 1. A “glyphosate-N-acetyltransferase” or “GAT” is an enzyme that catalyzes the acetylation of the amine group of glyphosate, a glyphosate analog, and/or a glyphosate primary metabolite (i.e., AMPA or sarcosine). In some preferred embodiments of the invention, a GAT is able to transfer the acetyl group from Acetyl CoA to the secondary amine of glyphosate and the primary amine of AMPA. […] The exemplary GATs described herein are active from pH 5-9, with optimal activity in the range of pH 6.5-8.0. Activity can be quantified using various kinetic parameters which are well known in the art, e.g., kcat, KM, and kcat/KM. These kinetic parameters can be determined as described below in Example 7.

Data set [3] concerns maize plants. As to the kind of experiment: Effect of temperature variation on glyphosate tolerance of T1 maize expressing GAT transgenes. Type of data set: in vivo. Particulars: cool/cold, warm and hot conditions; 0×, 4×, 6×, 8× at V2; scored at 5 and 14 days. The protocol:
Maize plants expressing GAT variant transgenes 10—4F2 (SEQ ID NO:202), 17-15H3 (SEQ ID NO:549), and 18-28D9b (SEQ ID NO:814) were produced using the methods described in Example 13. The effect of temperature on glyphosate tolerance was evaluated in T1 plants. The T1 plants were grown in cool/cold (day 14° C., night 8° C.), warm (day 28° C., night 20° C.), and hot (day 37° C., night 20° C.) conditions. T1 plants were sprayed at V2 with four different glyphosate spray treatments (0×, 4×, 6×, and 8×). Plants were scored at 5 and 14 days after treatment for leaf discoloration and plant height comparisons as described in Example 13.

The test system of data set [4] is maize plants. As to the kind of experiment: T1 field glyphosate spray of maize expressing GAT transgenes. Type of data set: in vivo. The settings on record: 0×, 4×, 8×, and 4×+4× sprays at V3 and V8; scored 10 days after treatment. The protocol: Maize plants expressing GAT variant transgenes 18-28D9b (SEQ ID NO:814) and 17-15H3 (SEQ ID NO:549) were produced using the methods described in Example 13. T1 plants were used for the generation of glyphosate field-tolerance data. The T1 plants were treated in the field with four different glyphosate spray treatments (0×, 4×, 8×, and 4×+4×) for each event. The plants were sprayed at V3 and V8. Plants were scored 10 days after treatment for leaf discoloration and plant height comparisons as described in Example 13. […] T2 seeds were collected for further studies.

Data set [5] can be described thus: Apparent KM for glyphosate of purified GAT from B. licheniformis strain B6 (spectrophotometric, 235 nm). It is filed as biochemical. The settings on record: 200 μM Acetyl CoA, 1 μM purified GAT, pH 7.7, 20% ethylene glycol. From the text:
Hyperbolic saturation kinetics were observed (FIG. 5), from which an apparent KM of 2.9±0.2 (SD) mM was obtained.

Data set [6] can be described thus: Transfer of the propionyl group from propionyl CoA to glyphosate (DTNB). It is filed as biochemical. Particulars: 1 mM propionyl CoA, 5 mM glyphosate or no glyphosate, 30 minutes. The protocol: The ability of GAT variants (B6 (SEQ ID NO:7), 0—6D10 (SEQ ID NO:448), 17-15H3 (SEQ ID NO:601), and 20-8H12 (SEQ ID NO:816)) to transfer the propionyl group from propionyl CoA to glyphosate was tested in reaction mixtures containing 5 mM glyphosate or no glyphosate. Propionyl CoA was present at 1 mM. After 30 minutes the reactions were terminated and the presence of free […] was determined by the addition of DTNB.

The nature of data set [7]: KM for Acetyl CoA by mass spectrometric detection of N-acetyl glyphosate. Type of data set: biochemical. Particulars: for Km: read-out: apparent KM for Acetyl CoA, 5 mM glyphosate, 0.19 μM GAT, pH 7.7, 50% methanol. The protocol: Initial reaction rates were determined using mass spectrometric detection of N-acetyl glyphosate. Five μl were repeatedly injected into the instrument and reaction rates were obtained by plotting reaction time vs. area of the integrated peak (FIG. 6). Hyperbolic saturation kinetics were observed (FIG. 7), from which an apparent KM of 2 μM was derived.
KM for Acetyl CoA was measured using the mass spectrometry method with repeated sampling during the reaction. AcetylCoA and glyphosate (ammonium salts) were placed as 50-fold-concentrated stock solutions into a well of a mass spectrometry sample plate. Reactions were initiated with the addition of enzyme appropriately diluted in a volatile buffer such as morpholine acetate or ammonium carbonate, pH 6.8 or 7.7. The sample was repeatedly injected into the instrument and initial rates were calculated from plots of […] and peak area. KM was calculated as for glyphosate.

For `O=C(O)CNCP(=O)(O)O` [glyphosate, N-phosphonomethylglycine], in the data set with tobacco plants (0.5, 2 or 4× glyphosate, vector only and seed grown wild type tobacco), the “plant response two weeks after glyphosate spray” value was “stopped growing, wilted, and turned brown”. Moreover, in the data set on tobacco plants (8× glyphosate, non-GAT 0× control tobacco plants), the “plant response after 8× dose” value is “died within two weeks”. Further, the “glyphosate concentration that completely inhibited any shoot formation” value in data set [1] is listed as “greater than 20 uM”.

B1: YitI: most closely related sequence available in Genbank, yitI from Bacillus subtilis (protein, UniProt O06744 1-149, looked up)
Uncharacterized …: MLEVKTISVEDTYEIRHRILRPHQSIEQCKYKEDHAEGSFHLGVFYDGTLISIASFSPQSQPLLTEASAYRLRGMATLEGYRDQKAGSTLIKHAEHKLAESGVQAVWCNARHHVKGYYAKLGWKELGEPFDIPGIGNHIVMYKTLRTSR
Take B1: the GAT activity entry in data set [2] is “detectable GAT activity”.

B2: SEQ ID NO:549: GAT variant transgene (nucleic acid)
DNA: ATGATAGAGGTGAAACCGATTAACGCAGAGGATACCTATGAACTAAGGCATAGAATACTCAGACCAAACCAGCCGATAGAAGCGTGTATGTTTGAAAGCGATTTACTTCGTGGTGCATTTCACTTAGGCGGCTATTACGGGGGCAAACTGATTTCCATAGCTTCATTCCACCAGGCCGAGCACTCAGAACTCCAAGGCCAGAAACAGTACCAGCTCCGAGGTATGGCTACCTTGGAAGGTTATCGTGAGCAGAAGGCGGGATCGAGTCTAATTAAACACGCTGAAGAAATTCTTCGTAAGAGGGGGGCGGACTTGCTTTGGTGTAATGCGCGGACATCCGCCTCAGGCTACTACAAAAAGTTAGGCTTCAGCGAGCAGGGAGAGGTATTCGACACGCCGCCAGTAGGACCTCACATCCTGATGTATAAAAGGATCACATAA
modifications: Synthetic DNA Sequence; D_S00260796_17-15H3
notes: GAT variant transgene
With B2, the “effect of temperature on glyphosate tolerance” value in the data set on maize plants [3] is “glyphosate tolerance is not adversely effected by the range of temperatures tested”. Moreover, the “T1 field glyphosate tolerance” value in the data set on maize plants [4] is “correlated well with the results previously obtained in the greenhouse”.

B3: SEQ ID NO:814: GAT variant transgene (nucleic acid)
DNA: ATGATAGAGGTGAAACCGATTAACGCAGAGGATACCTATGAACTAAGGCATAGAATACTCAGACCAAACCAGCCGATAGAAGCGTGTATGTTTGAAAGCGATTTACTTCGTGGTGCATTTCACTTAGGCGGCTTTTACAGGGGCAAACTGATTTCCATAGCTTCATTCCACCAGGCCGAGCACTCGGAACTCCAAGGCCAGAAACAGTACCAGCTCCGAGGTATGGCTACCTTGGAAGGTTATCGTGAGCAGAAAGCGGGATCAACTCTAGTTAAACACGCTGAAGAAATCCTTCGTAAGAGGGGGGCGGACATGCTTTGGTGTAATGCGCGGACATCCGCCTCAGGCTACTACAAAAAGTTAGGCTTCAGCGAGCAGGGAGAGATATTTGACACGCCGCCAGTAGGACCTCACATCCTGATGTATAAAAGGATCACATAA
modifications: Synthetic DNA Sequence; CDS (1)...(441); 18-28D9b
notes: GAT variant transgene
With B3, in the data set on maize plants [3], the “effect of temperature on glyphosate tolerance” value is listed as “glyphosate tolerance is not adversely effected by the range of temperatures tested”. In addition, the “T1 field glyphosate tolerance” value with maize plants [4] is listed as “correlated well with the results previously obtained in the greenhouse”.

B4: SEQ ID NO:7: GAT enzyme isolated from a strain of B. licheniformis (strain B6) (protein)
chain: MIEVKPINAEDTYEIRHRILRPNQPLEACKYETDLLGGTFHLGGYYRDRLISIASFHQAEHSELEGQKQYQLRGMATLEGYREQKAGSTLIRHAEELLRKKGADLLWCNARTSVSGYYKKLGFSEQGGVYDIPPIGPHILMYKKLT
modifications: Unidentified microorganism derived from soil sample.; B6 GAT
As for B4, the Km was approximately 2900 µM in data set [5], 2900 ± 200 µM in data set [5] (listed as B6), approximately 2 µM in data set [7] and 2 µM in data set [7] (listed as B6). Moreover, the “transfer of propionyl group to glyphosate” value in data set [6] is on record as “glyphosate-dependent hydrolysis of propionyl CoA”. Also, the Kcat in data set [7] (calculated from Vmax at a known concentration of enzyme) was 0.1 s⁻¹.
